Laboratory results reported in PMC10160029, “Engineered repeat proteins as scaffolds to assemble multi-enzyme systems for efficient cell-free biosynthesis” (Nature Communications, 2023).

Experiments:
[1] = target: T1, TRAP1-3; test: fluorescence anisotropy of NADH; type: binding; conditions: PBS (150 mM NaCl, 50 mM phosphate) pH 7.4, 25 °C, 1 µM NADH titrated with 0-100 µM TRAP1-3; one-site fit
T1 construct: designed fusion of TRAP1 and TRAP3 TPR modules, synthetic gene in pET-28b(+), E. coli C41, Ni-NTA; His-tag kept in assembly; mass 32,621 (kDa [sic])

[2] = target: FDH1: formate dehydrogenase from Candida boidinii with peptide-1 (MEEVV) fused to its C-terminus (Candida boidinii); test: SEC; each tagged enzyme alone; molecular weight estimated from the elution
[3] = substrate: O=CO; test: purified protein; type: biochemical, [Candida] boidinii; conditions: saturating NAD+, 25 mM sodium phosphate pH 7.0, 30 °C, FDH1 bound alone to TRAP1-3, apparent
[4] = substrate: NC(=O)c1ccc[n+]([C@@H]2O[C@H](COP(=O)(O)OP(=O)(O)OC[C@H]3O[C@@H](n4cnc5c(N)ncnc54)[C@H](O)[C@@H]3O)[C@@H](O)[C@H]2O)c1; test: purified protein; type: biochemical, [Candida] boidinii; conditions: saturating formate, 25 mM sodium phosphate pH 7.0, 30 °C, FDH1 bound alone to TRAP1-3, apparent
[5] = substrate: NC(=O)C1=CN([C@@H]2O[C@H](COP(=O)(O)OP(=O)(O)OC[C@H]3O[C@@H](n4cnc5c(N)ncnc54)[C@H](O)[C@@H]3O)[C@@H](O)[C@H]2O)C=CC1; test: purified protein; type: biochemical, Geobacillus stearothermophilus; conditions: saturating pyruvate, 500 mM ammonium chloride, 25 mM potassium phosphate pH 8.0, 30 °C, AlaDH3 bound alone to TRAP1-3, apparent
[6] = substrate: CC(=O)C(=O)O; test: purified protein; type: biochemical, Geobacillus stearothermophilus; conditions: saturating NADH, 500 mM ammonium chloride, 25 mM potassium phosphate pH 8.0, 30 °C, AlaDH3 bound alone to TRAP1-3, apparent, substrate inhibition fit
[7] = target: the molecule itself; test: SEC; each tagged enzyme alone; molecular weight estimated from the elution

NC(=O)C1=CN([C@@H]2O[C@H](COP(=O)(O)OP(=O)(O)OC[C@H]3O[C@@H](n4cnc5c(N)ncnc54)[C@H](O)[C@@H]3O)[C@@H](O)[C@H]2O)C=CC1 [NADH]
Kd [1]: 34.9 µM

FDH1: formate dehydrogenase from Candida boidinii with peptide-1 (MEEVV) fused to its C-terminus (enzyme)
stoichiometry N [2]: 2

B1: FDH1@TRAP ([Candida] boidinii) (protein)
chain: MKIVLVLYDAGKHAADEEKLYGCTENKLGIANWLKDQGHELITTSDKEGGNSVLDQHIPDADIIITTPFHPAYITKERIDKAKKLKLVVVAGVGSDHIDLDYINQTGKKISVLEVTGSNVVSVAEHVLMTMLVLVRNFVPAHEQIINHDWEVAAIAKDAYDIEGKTIATIGAGRIGYRVLERLVPFNPKELLYYDYQALPKDAEEKVGARRVENIEELVAQADIVTINAPLHAGTKGLINKELLSKFKKGAWLVNTARGAICVAEDVAAALESGQLRGYGGDVWFPQPAPKDHPWRDMRNKYGAGNAMTPHYSGTTLDAQTRYAEGTKNILESFFTGKFDYRPQDIILLNGEYITKAYGKHDKK
notes: FDH with C-terminal peptide-1 tag MEEVV, pET-28b(+), E. coli C41, Ni-NTA, His-tag removed by TEV; mass 45,137 (kDa [sic]); dimer; 5DNA as structure used for illustration
Km [3]: 2420 ± 1070 µM | Vmax [3]: 0.95 µmol/min/mg | kcat [3]: 0.7 ± 0.2 s⁻¹ | kcat/Km [3]: 290 M⁻¹ s⁻¹ | Km [4]: 270 ± 100 µM | Vmax [4]: 1.23 µmol/min/mg | kcat [4]: 0.9 ± 0.3 s⁻¹ | kcat/Km [4]: 3500 M⁻¹ s⁻¹

B2: AlaDH3@TRAP (Geobacillus stearothermophilus) (protein)
chain: MKIGIPKEIKNNENRVAITPAGVMTLVKAGHEVYVETEGGAGSGFSDSEYEKAGAADRCRTWRDAWTAEMVLKVKEPLAREFRYFRPGLILFTYLHLAAAERVTKAVVEQKVVGIAYETVQLANGSLPLLTPMSEVAGRMSVQVGAQFLEKPHGGKGILLGGVPGVRRGKVTIIGGGTAGTNAAKIGVGLGADVTILDINAERLRELDDLFGDHVTTLMSNSYHIAECVRESDLVVGAVLIPGAKAKLVTEEMVRSMTPGSVLVDIAIDQGGIFETTDRVTTHDDPTYVKHGVVHYAVANMPGAVPRTSTFALTNVTIPYALQIANKGYRAGCLDNPALLKGINTLDGHIVYEAVAAAHNMPYTDVHSLLHG
notes: AlaDH with C-terminal peptide-3 tag MRRVW, pET-28b(+), E. coli C41, Ni-NTA, His-tag removed by TEV; mass 44,323 (kDa [sic]); hexamer
Km [5]: 360 ± 70 µM | Vmax [5]: 94.3 µmol/min/mg | kcat [5]: 69.9 ± 4.7 s⁻¹ | kcat/Km [5]: 190000 M⁻¹ s⁻¹ | Km [6]: 390 ± 50 µM | Vmax [6]: 41.3 µmol/min/mg | kcat [6]: 30.6 ± 1.9 s⁻¹ | kcat/Km [6]: 79000 M⁻¹ s⁻¹

B3: AlaDH3: alanine dehydrogenase from Bacillus stearothermophilus with peptide-3 (MRRVW) fused to its C-terminus (enzyme)
chain: MKIGIPKEIKNNENRVAITPAGVMTLVKAGHDVYVETEAGAGSGFSDSEYEKAGAVIVPNAEDAWTAEMVLKVKEPLAEEFRYFRPGLILFTYLHLAAAEALTKALVEQKVVGIAYETVQLANGSLPLLTPMSEVAGRMSVQVGAQFLEKPHGGKGILLGGVPGVRRGKVTIIGGGTAGTNAAKIAVGLGSDVTILDINAERLRELDDLFGDHVTTLMSNSYHIAECVRESDLVVGAVLIPGAKAPKLVTEEMVRSMTPGSVLVDIAIDQGGIFETTDRVTTHDDPTYVKHGVVHYAVANMPGAVPRTSTFALTNVTIPYALQIANKGYRAACLDNPALLKGINTLDGHIVYEAVAAAHNMPYTDVHSLLHGMRRVW
stoichiometry N [7]: 6
